From publication PMC3510010 come the findings set out here.

Read-outs that look alike come from different tables or passages of the source.

What all share (test): F-EMSA
For data set [1], the target named is T1, POS-1(1-206) (Caenorhabditis elegans, UniProt G5EF15 1-206).
For data set [2], the target named is T2, GLD-1(135-336) (Caenorhabditis elegans, UniProt Q17339 135-336).
T2 sequence: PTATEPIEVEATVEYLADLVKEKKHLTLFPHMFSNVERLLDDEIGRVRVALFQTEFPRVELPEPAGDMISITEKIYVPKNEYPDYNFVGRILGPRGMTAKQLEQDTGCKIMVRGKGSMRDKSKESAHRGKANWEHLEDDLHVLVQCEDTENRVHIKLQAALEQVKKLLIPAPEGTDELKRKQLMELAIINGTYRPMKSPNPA

Another data set has as its target POS-1-RBD (80-180) (Caenorhabditis elegans, UniProt G5EF15 80-180).
A further data set addresses T3, SPN-4-RBD (Caenorhabditis elegans, UniProt G5EF02 50-135).
T3 sequence: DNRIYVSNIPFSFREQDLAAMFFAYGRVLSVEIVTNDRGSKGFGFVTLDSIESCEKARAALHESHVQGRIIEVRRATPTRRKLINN

Data set [3] has as its target T2, GLD-1(135-336). The source holds these as a separate data set.
For data set [4], the target named is T1, POS-1(1-206). This is another data set of the same source.
Data set [5] addresses T2, GLD-1(135-336). This is another data set of the same source.
Data set [6] deals with T1, POS-1(1-206). This is another data set of the same source.
For data set [7], the target named is T1, POS-1(1-206). The source holds these as a separate data set.

T1 sequence (G5EF15 1-206): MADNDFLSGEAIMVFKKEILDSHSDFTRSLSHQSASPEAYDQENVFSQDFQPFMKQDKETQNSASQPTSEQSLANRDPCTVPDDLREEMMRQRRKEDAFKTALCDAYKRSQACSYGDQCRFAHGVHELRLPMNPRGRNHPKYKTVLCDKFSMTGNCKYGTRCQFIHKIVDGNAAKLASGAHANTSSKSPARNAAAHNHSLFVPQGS
Sequence of POS-1-RBD (80-180) (G5EF15 80-180): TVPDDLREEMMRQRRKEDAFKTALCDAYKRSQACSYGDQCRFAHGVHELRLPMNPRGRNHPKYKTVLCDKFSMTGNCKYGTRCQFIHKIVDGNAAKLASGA

UUUUUCUCCCUCUAGACUAACCCUGUAAGCU (ssRNA) [∆5′ 3′ PRE]: the Kd (in general, a measure of binding affinity in units of concentration) in the data set with POS-1(1-206) [1] was determined as 310 ± 20 nM; with GLD-1(135-336) [2] it was 20 ± 3 nM.
Consider UUUUUCUUAUUCUAGACUAAUAUUGUAAGCU (ssRNA) [glp-1 WT], for which the Kd with POS-1-RBD (80-180) was 30 ± 17 nM; with GLD-1(135-336) [3], 70 ± 10 nM; with POS-1(1-206) [4], 19 ± 2 nM. Further, in the data set with SPN-4-RBD, the binding result is given as “no binding”.
With UUUUUCUCCCUCUAGACUAAUAUUGUAAGCU (ssRNA) [∆5′ PRE], the Kd with GLD-1(135-336) [5] was 33 ± 7 nM; with POS-1(1-206) [6] it was 55 ± 4 nM.
In the case of UUUUUCUUAUUCUAGACUAACCCUGUAAGCU (ssRNA) [∆3′ PRE], the Kd in the data set with GLD-1(135-336) [5] was 25 ± 3 nM; with POS-1(1-206) [7], 53 ± 1 nM.
In the case of UUUUUCUUAUUCUAGACCAAUAUUGUAAGCU (ssRNA) [∆GBM], in the data set with POS-1(1-206) [1], the Kd came out at 21 ± 1 nM.
